Square brackets hold non-standard residues; d marks the D form. βAla = NCCC(=O)O; Sar = CNCC(=O)O

We go through eight molecules from patent US20200017566A1 (priority 2014, published 2020).

Assay [1] deals with T1, human ferroportin (Homo sapiens, UniProt Q9NP59).
T1 construct: expressed in transfected cells
T1 sequence (Q9NP59 1-571): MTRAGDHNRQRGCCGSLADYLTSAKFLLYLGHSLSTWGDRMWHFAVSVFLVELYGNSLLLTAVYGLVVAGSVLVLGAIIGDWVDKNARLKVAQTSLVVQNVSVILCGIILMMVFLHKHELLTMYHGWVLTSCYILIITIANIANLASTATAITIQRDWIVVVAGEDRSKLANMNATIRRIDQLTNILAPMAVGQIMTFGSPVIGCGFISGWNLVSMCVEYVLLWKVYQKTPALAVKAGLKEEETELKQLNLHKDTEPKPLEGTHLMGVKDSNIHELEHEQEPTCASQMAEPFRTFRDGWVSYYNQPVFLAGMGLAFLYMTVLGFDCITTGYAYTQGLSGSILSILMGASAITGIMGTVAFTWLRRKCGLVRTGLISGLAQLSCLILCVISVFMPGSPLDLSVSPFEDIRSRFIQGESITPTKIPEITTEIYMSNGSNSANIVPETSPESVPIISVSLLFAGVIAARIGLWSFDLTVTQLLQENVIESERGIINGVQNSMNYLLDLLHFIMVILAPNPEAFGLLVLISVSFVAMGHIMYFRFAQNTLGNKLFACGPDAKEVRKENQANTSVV
The format is cell-based. To be noted: Table 3. How it is done: Peptide analogues were tested in vitro for induction of internalization of the human ferroportin protein. Following internalization, the […] are degraded. The assay measures a decrease in fluorescence of the receptor.
The cDNA encoding the human ferroportin (SLC40A1) was cloned from a cDNA clone from Origene (NM_014585). The DNA encoding the ferroportin was amplified by PCR using primers also encoding terminal restriction sites for subcloning, but without the termination codon. The ferroportin receptor was subcloned into a mammalian GFP expression vector containing a neomycin (G418) resistance marker in such that the reading frame of the ferroportin was fused in frame with the GFP protein. The fidelity of the DNA encoding the protein was confirmed by DNA sequencing. HEK293 cells were used for transfection of the ferroportin-GFP receptor expression plasmid. The cells were grown according to standard protocol in growth medium and transfected with the plasmids using Lipofectamine (manufacturer's protocol, Invitrogen). […] The cells were propagated and frozen in aliquots.
A retro inverse peptide is a peptide with a reversed sequence in all D amino acids. […] The EC50 of these reference compounds for ferroportin degradation was determined according to the activity assay described above.

For assay [2] the following is noted: reported by Presza et al. J Clin Invest. 2011; cited from earlier work.
The target in assay [3] is T2, human ferroportin (SLC40A1) fused to GFP (human, UniProt Q9NP59 1-571).
T2 sequence (looked up): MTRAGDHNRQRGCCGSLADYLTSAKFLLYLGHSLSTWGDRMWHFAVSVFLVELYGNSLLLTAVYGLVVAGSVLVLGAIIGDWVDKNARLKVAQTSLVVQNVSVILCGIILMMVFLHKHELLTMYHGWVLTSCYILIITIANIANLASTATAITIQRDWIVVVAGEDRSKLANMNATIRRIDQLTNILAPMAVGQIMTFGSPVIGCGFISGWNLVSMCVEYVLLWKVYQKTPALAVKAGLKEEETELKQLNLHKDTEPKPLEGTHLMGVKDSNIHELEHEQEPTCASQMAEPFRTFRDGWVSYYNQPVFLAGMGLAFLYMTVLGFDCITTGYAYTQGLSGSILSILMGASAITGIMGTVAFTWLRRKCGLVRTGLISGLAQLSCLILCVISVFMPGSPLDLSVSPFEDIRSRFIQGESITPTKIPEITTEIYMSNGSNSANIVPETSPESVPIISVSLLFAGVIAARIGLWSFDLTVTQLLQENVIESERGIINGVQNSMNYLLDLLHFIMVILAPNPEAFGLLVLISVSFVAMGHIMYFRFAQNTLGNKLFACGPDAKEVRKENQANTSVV
Nature of the assay: cell-based or functional assay.

In the case of DTHCPIAIF [compound 473], the “Ferroportin internalization assay EC50 (nM)” value in assay [1] is “Not Active”. For “Hy-DPhe-DIle-DCys-DIle-DPro-DPhe-DHis-DThr-DAsp-NH2 [RI-Mini Hepcidin]”, the activity in vivo entry in assay [2] was “highly active in vivo”.

B1: CMPD No. 205 (peptide)
peptide: DTHFPCIKFKPRSKGWVCK
modifications: not fully specified; IVA (isovaleric acid) on side chain of Lys 10; C-terminal amide
On to B1, for which the “Potency EC50” value in assay [3] is above 0.3 µM.

B2: CMPD No. 123 (peptide)
peptide: H-DTHFGCIIFGPRSKGWVCK-NH2
modifications: not fully specified (bridges); printed as Hy-DTHFGCIIFGPRSKGWVCK-NH2; cysteine pairing not given here
In the case of B2, the “Potency EC50” value in assay [3] was above 10 µM.

B3: CMPD No. 127 (peptide)
peptide: H-DTHF[Sar]CIIFGPRSKGWVCK-NH2
modifications: not fully specified (bridges); printed as Hy-DTHF-[Sarc]-CIIFGPRSKGWVCK-NH2; cysteine pairing not given here
On to B3, for which the “Potency EC50” value in assay [3] is above 10 µM.

B4: CMPD No. 131 (peptide)
peptide: H-DTHFKCIIFGPRSKGWVCK-NH2
modifications: not fully specified (bridges); printed as Hy-DTHFKCIIFGPRSKGWVCK-NH2; cysteine pairing not given here
As to B4, in assay [3], the “Potency EC50” value is above 10 µM.

B5: CMPD No. 125 (peptide)
peptide: H-DTHFRCIIFGPRSKGWVCK-NH2
modifications: not fully specified (bridges); printed as Hy-DTHFRCIIFGPRSKGWVCK-NH2; cysteine pairing not given here
B5: the “Potency EC50” value in assay [3] is above 10 µM.

B6: CMPD No. 129 (peptide)
peptide: H-DTHF[βAla]CIIFGPRSKGWVCK-NH2
modifications: not fully specified (bridges); printed as Hy-DTHF-[β-Ala]-CIIFGPRSKGWVCK-NH2; cysteine pairing not given here
Regarding B6, in assay [3], the “Potency EC50” value was above 10 µM.
